Results as given in patent US8409577.

Target: T1, CD20 (human) (UniProt P11836)
T1 sequence (looked up): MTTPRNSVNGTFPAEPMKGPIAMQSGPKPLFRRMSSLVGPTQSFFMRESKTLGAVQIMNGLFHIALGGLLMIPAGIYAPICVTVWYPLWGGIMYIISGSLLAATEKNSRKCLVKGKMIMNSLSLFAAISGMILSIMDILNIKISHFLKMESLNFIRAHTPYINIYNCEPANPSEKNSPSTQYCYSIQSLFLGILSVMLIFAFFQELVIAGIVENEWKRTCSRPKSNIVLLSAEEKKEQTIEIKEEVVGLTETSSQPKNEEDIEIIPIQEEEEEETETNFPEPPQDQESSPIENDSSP
Test: competition, flow cytometry on Ramos B cells; competitor PE-labeled monoclonal anti-CD20 antibody 3 ug/ml

Substance: CD20×CD37 bispecific scorpion (015×016) (bispecific antibody)
- IC50 (read off the curve): 4 nM
